Reference: article PMC8355190

Biological target: PKM2 (human (endogenous in H1650)) (UniProt P14618)
Assay: cross-linking

Chain of PKM2, P14618 1-531 (enzyme; other documents disagree on this pair) (P14618 whole entry): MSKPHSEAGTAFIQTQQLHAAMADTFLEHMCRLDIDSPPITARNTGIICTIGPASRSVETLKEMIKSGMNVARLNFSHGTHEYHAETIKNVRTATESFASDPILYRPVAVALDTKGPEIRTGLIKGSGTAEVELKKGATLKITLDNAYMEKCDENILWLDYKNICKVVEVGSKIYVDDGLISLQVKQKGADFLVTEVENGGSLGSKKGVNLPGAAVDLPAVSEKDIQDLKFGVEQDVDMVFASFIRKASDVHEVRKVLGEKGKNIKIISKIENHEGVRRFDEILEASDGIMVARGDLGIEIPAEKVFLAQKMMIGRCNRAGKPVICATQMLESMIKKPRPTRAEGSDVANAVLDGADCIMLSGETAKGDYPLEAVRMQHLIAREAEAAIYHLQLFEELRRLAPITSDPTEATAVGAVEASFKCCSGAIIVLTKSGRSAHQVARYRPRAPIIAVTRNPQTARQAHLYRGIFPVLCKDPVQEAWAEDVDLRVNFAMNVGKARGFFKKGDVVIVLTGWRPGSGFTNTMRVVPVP

stoichiometry N: 2
Substance: PKM2, P14618 1-531 (enzyme; other documents disagree on this pair)
